Molecular target: the molecule itself
Experiment: self-assembly of CT-B subunits, pH shift, SDS-PAGE and Western blot

B1: native CT-B protein (other)
chain: TPQNITDLCAEYHNTQIYTLNDKIFSYTESLAGKREMAIITFKNGAIFQVEVPGSQHIDSQKKAIERMKDTLRIAYLTEAKVEKLCVWNNKTPHAIAAISMAN
B1: binds.

From patent US12030920 (IN3BIO, dated 2024)
